For two molecules, Kd, koff and kon results are on record in patent CN115043940A (TIANCHEN BIOMEDICAL SUZHOU CO LTD, dated 2022).

Assay [1] deals with T1, 人血清白蛋白(Human Serum Albumin,HSA) (human, UniProt P02768 25-609).
T1 construct: The only source named is native HSA (abcam ab205808), for immunisation; also called HSA蛋白; HSA抗原
As to the kind of experiment: Octet BLI, biotinylated HSA on SA sensor, VHH in solution.

In the next assay the target is T2, 食蟹猴血清白蛋白 (cynomolgus monkey (食蟹猴), UniProt A2V9Z4 25-608, biotin-labelled (sites not given)).
T2 construct: Biotin-labelled and loaded on SA sensors in the Octet assay; also called albumin-macaca; alb-ma
T2 sequence (A2V9Z4 25-608 limits assumed): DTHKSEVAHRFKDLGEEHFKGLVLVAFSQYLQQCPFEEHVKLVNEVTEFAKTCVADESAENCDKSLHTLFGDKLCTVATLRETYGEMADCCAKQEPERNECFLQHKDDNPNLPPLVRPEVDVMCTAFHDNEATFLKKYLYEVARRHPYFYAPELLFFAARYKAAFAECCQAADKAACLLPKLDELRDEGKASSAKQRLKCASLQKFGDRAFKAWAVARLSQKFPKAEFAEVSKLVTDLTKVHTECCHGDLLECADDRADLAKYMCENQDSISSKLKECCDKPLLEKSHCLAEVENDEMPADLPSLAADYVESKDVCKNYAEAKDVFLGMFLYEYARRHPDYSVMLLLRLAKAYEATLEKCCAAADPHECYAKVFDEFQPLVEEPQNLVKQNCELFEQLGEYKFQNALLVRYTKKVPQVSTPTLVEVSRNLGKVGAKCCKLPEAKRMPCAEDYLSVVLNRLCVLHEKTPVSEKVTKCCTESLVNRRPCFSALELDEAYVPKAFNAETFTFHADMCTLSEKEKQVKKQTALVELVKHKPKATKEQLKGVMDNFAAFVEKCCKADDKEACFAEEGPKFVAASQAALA
As to the kind of experiment: Octet BLI, biotinylated cynomolgus serum albumin on SA sensor, VHH in solution.

T1 sequence (P02768 25-609 limits assumed): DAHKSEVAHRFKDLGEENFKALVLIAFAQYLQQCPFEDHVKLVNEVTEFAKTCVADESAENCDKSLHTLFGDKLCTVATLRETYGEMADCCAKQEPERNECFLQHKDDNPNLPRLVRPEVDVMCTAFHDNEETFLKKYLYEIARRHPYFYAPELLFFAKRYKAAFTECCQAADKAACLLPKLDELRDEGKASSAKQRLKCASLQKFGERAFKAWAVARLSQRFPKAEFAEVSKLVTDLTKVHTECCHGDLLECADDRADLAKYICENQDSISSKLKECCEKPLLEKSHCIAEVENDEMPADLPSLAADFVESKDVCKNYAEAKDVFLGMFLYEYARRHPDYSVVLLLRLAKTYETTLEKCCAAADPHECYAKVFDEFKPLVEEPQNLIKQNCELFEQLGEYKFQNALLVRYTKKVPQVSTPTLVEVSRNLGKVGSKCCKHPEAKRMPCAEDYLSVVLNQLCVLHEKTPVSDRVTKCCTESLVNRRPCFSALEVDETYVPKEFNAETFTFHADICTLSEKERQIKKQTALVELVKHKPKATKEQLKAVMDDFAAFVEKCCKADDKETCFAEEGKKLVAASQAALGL

B1: 单域抗体LB21 (VHH)
VHH: QVQLVESGGGLVQPGGSLRLSCAASRIIFDVYNLAWFRQAPGKERELVASITSGLSTDYATTVKGRFIISRDNAKNTVYLQMNNLKPEDTAVYYCTANSRTTWYYWGQGTLVTVSS
notes: not shown: C-terminal 6xHis-tag and HA-tag
As a reminder, the Kd is the concentration at which binding is half-saturated. The term koff denotes a measure of how fast the partners let go of each other. In general, kon refers to the rate constant with which the complex forms. In assay [1], B1 came in with a Kd of 1.24 nM, a koff of 0.000687 s⁻¹ and a kon of 554000 M⁻¹ s⁻¹. In the assay with 食蟹猴血清白蛋白, binding was put at a Kd of 0.217 nM, the koff amounted to 2.69e-05 s⁻¹ and the kon was 124000 M⁻¹ s⁻¹.

B2: 单域抗体LB22 (VHH)
VHH: QVQLQESGGGVVQPGGSLRLSCTASGFTFSVYAMGWYRQAPGKDCELVGLITSTSDTRYADSVKGRFSISRDNAKKTVYLQMNRLKPEDTAVYYCMAGNSWGATVQAMCKSDYDYWGQGTQVTVSS
notes: as for B1
For the molecule B2, in assay [1], the Kd was 0.109 nM, the koff amounted to 0.00014 s⁻¹ and the kon was 1.29e+06 M⁻¹ s⁻¹. In the assay with 食蟹猴血清白蛋白, this molecule came in with a Kd of 0.708 nM, a koff of 6.47e-05 s⁻¹ and a kon of 91300 M⁻¹ s⁻¹.
